Source: IntAct's records for PubMed 14871493

target: narb_syne7 narB (UniProt P39458)
Sequence (P39458 whole entry): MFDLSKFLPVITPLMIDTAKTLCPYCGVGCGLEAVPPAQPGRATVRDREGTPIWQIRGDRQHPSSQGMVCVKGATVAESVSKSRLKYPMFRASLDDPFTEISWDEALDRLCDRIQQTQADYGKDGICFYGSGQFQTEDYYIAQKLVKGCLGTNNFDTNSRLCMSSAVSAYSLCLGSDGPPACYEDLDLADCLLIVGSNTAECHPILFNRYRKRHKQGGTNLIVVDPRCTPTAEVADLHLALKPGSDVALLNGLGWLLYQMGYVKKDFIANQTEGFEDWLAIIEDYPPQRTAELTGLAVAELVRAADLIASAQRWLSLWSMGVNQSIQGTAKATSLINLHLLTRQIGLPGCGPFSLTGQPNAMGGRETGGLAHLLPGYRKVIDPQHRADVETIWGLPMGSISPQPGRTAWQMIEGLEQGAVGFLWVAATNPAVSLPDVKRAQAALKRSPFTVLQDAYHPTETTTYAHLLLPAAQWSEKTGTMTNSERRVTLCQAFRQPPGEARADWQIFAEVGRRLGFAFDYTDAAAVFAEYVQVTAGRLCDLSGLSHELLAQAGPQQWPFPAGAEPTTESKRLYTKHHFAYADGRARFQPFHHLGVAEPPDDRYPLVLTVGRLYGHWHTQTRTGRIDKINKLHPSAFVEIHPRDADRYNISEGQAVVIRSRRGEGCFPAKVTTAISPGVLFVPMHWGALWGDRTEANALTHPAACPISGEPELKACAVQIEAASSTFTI

Chain of Ferredoxin-1 (Anabaena sp. (strain PCC 7119)), P0A3C8 E95K (P0A3C8 whole entry E95K): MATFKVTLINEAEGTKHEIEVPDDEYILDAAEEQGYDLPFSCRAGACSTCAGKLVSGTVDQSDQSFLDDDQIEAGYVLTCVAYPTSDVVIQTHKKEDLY
Chain of Ferredoxin-1 (Anabaena sp. (strain PCC 7119)), P0A3C8 E96K (P0A3C8 whole entry E96K): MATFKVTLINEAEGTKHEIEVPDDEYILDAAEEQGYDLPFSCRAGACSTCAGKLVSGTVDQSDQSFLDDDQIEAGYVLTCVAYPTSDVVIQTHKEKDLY
Chain of Ferredoxin-1 (Anabaena sp. (strain PCC 7119)), P0A3C8 E95K;E96K (P0A3C8 whole entry E95K/E96K): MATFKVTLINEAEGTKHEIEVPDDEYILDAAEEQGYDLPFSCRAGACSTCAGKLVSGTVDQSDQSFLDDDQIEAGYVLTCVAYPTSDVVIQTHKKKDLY

Effect of a mutation on the interaction, decreasing interaction:
Ferredoxin-1 (Anabaena sp. (strain PCC 7119)), P0A3C8 E95K
Ferredoxin-1 (Anabaena sp. (strain PCC 7119)), P0A3C8 E95K;E96K
Ferredoxin-1 (Anabaena sp. (strain PCC 7119)), P0A3C8 E96K
